According to publication PMC10063446 (Nature Immunology, 2023):

Experiments:
[1] = target: SARS-CoV-2 RBD immobilised on the CM5 chip (SARS-CoV-2 wild-type (assumed)); assay: SPR; conditions: both partners purified
[2] = target: T1, recombinant RBD protein of wild-type SARS-CoV-2 (ELISA antigen) (SARS-CoV-2 wild-type, UniProt P0DTC2); assay: ELISA; conditions: one partner purified
T1 construct: No catalogue number printed

[3] = target: T2, recombinant wild-type SARS-CoV-2 S trimer (ELISA antigen) (SARS-CoV-2 wild-type, UniProt P0DTC2); assay: ELISA; conditions: one partner purified
T2 construct: also called S^WT trimer; recombinant S protein; source: bought: Sino Biological

[4] = target: T3, wild-type SARS-CoV-2 S protein expressed on the surface of HEK 293T cells (SARS-CoV-2 wild-type (MN908947.3), UniProt P0DTC2); assay: flow cytometry on cells; conditions: one partner purified
T3 construct: also called S^WT protein

Binder | binding result [1] | binding result [2] | binding result [3] | binding result [4]
P2S-2E9 (full IgG1) (antibody, V domains shown) VH: QITLKESGPTLVKPTQTLTLTCTFSGFSLSTSGVGVGWIRQPPGKALEWLALIYWDDDKRYSPSLKSRLTITKDTSKNQVVLTMTNMDPVDTATYYCARHRIGYIFDYWGQGTLVTVSS VL: QSALTQPASVSGSPGQSITISCTGTSSDVGDFNYVSWYQQHPGKAPKLMIYDVTKRPSGVSNRFSGSKSGNTASLTISGLQAEDEADYCCSSYTTSSISFGGGTKLTVL | binds | binds | binds | binds
P5-1H1 (full IgG1) (antibody, V domains shown) VH: EVQLVESGGGLIQPGGSLRLSCAASGITVSSNYMTWVRQPPGKGLEWVSVIYSGGSTFYADPVKGRFTISRDNSRNTLYLQMNSLRAEDTAVYYCARDLQVYGMDVWGQGTTVTVSS VL: DIQLTQSPSFLSASVGDRVTITCRASQGISNFLAWYQQKPGKAPKLLIYAASTLQGGVPSTFSGSGSGTEFTLTISSLQPEDFATYYCQHLNDYPLFGGGTRVEIK |  |  | binds | binds
P2-1B1 (full IgG1) (antibody, V domains shown) VH: QVQLVQSGAEVKRPGSSVKVSCKASGGTFSSYAISWVRQAPGQGPEWMGGIIPIFGTPHNAQKFQGRVTITADESTSTAYMELSSLRSEDTAMYYCSRTKGDILTGYTDYYFDSWGQGTLVTVSS VL: not shown |  |  | binds | 
P5-1C8 (full IgG1) (antibody, V domains shown) VH: EVQLVESGGGLIQPGGSLRLSCAASEIIVSRNYMNWVRQAPGKGLEWVSVIYSGGSTFYADSVKGRFTISRDNSENTLYLQMNSLRAEDTAVYYCARGYGDYYFDYWGRGTLVTVSS VL: not shown |  |  | binds | 
P5S-3B11 (full IgG1) (antibody, V domains shown, IgG1; group 2) VH: EVQLVESGGGLVQPGGSLRISCAASGLTFTGYWMNWVRQAPGKGLEWVANIKEDGSEKYYVDSVKGRFTISRDNAKNSLYLQMNSLRVEDTAVYYCARLRWLRGNFDHWGQGTLVTVSS VL: NFMLTQPHSVSESPGKTVTISCTGSNGYIANNYVQWYQQRPGSVPTVVIYEDNQRPSGVPDRFSGSIDSSSNSASLIISGLKTEDEADYYCQSYDTPNVVFGGGTKLTVL | binds |  |  | 
